Series [1] deals with Saccharomyces cerevisiae. Description: protein stability index of tFT-peptide fusion (C-terminal peptide) (PSI (0-1 scale)); higher = more stable (slower turnover). As to the method:
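MPS profiling in S. cerevisiae of the tFT-X12 degron library: putative degron peptides plus stable controls, 12 aa, fused to the C-terminus of a sfGFP-mCherry timer. Cells are FACS-sorted into 8 mCherry/sfGFP bins and deep-sequenced. PSI runs from 0 (unstable) to 1 (stable). Backgrounds are wild type, das1Δ and doa10Δ at 30 °C, and wild type, das1Δ, cdc34-1 and cdc53-1 at 37 °C; 2-3 technical replicates each.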

The subject of series [2] is Saccharomyces cerevisiae. The description is as above. As to conditions: genetic background: wild type; temperature: 30 C.

The source of these data is the supplement of paper PMC10724198.

± gives the standard deviation of the averaged measurements.
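Note: PSI is a weighted mean of sequencing reads over stability bins, variants kept only with over 10 reads, mCherry proximal and sfGFP distal, peptide attached via GGGS linker.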

Consider VQTVRLVFQVLA, for which the protein stability index is 0.307 ± 0.0063 in series [1] (genetic background: cdc34-1, temperature: 37 C); 0.373 ± 0.049 in series [1] (genetic background: cdc53-1, temperature: 37 C); 0.25 ± 0.033 in series [1] (genetic background: das1 deletion, temperature: 30 C); 0.4 ± 0.0099 in series [1] (genetic background: das1 deletion, temperature: 37 C); 0.106 ± 0.0074 in series [1] (genetic background: doa10 deletion, temperature: 30 C); 0.125 ± 0.031 in series [1] (genetic background: wild type, temperature: 30 C). The protein stability index in series [1] (genetic background: wild type, temperature: 37 C) worked out at 0.207 ± 0.018.

Sequence WSGVFSCTLSIT displayed a protein stability index in series [2] of 0.567 ± 0.038.

In the case of WSPFSLISLSPP, the protein stability index in series [2] stood at 0.725 ± 0.099.

Sequence WSSLSCACVVPF showed a protein stability index in series [2] of 0.726 ± 0.065.

In the case of WSSTTISVQRGL, the protein stability index in series [2] amounted to 0.7 ± 0.089.

As for WSSVSGEFRSLW, the protein stability index in series [2] worked out at 0.707 ± 0.035.

As for WSVHGLGSVSIY, the protein stability index in series [2] amounted to 0.707 ± 0.014.

WSYGHVPYDYPF showed a protein stability index in series [2] of 0.73 ± 0.022.

Sequence WTLSDTRHVLPV displayed a protein stability index in series [2] of 0.6683 ± 0.00084.

As to WTSGCLEIFRRE, the protein stability index in series [2] was determined as 0.702 ± 0.033.

Consider WVESGGGCVGRI, for which the protein stability index in series [2] came out at 0.706 ± 0.039.

On to WVGSGRVWVKLG, for which, in series [2], the protein stability index stood at 0.708 ± 0.0092.

With WVGVGMRTNGLG, in series [2], the protein stability index is 0.679 ± 0.072.

Regarding WVLGGSWLRCRK, the protein stability index in series [2] is 0.726 ± 0.014.

For WVNRFVFFSPST, the protein stability index in series [2] was determined as 0.615 ± 0.11.

Regarding WVPGAAGFTGSL, the protein stability index in series [2] was found to be 0.74 ± 0.049.

WVVRVMYTSSGK: the protein stability index in series [2] stood at 0.556 ± 0.035.

WWASFVGSFVGD yielded a protein stability index in series [2] of 0.878 ± 0.15.

For the sequence WWEFSCGFVVGG, the protein stability index in series [2] was determined as 0.671 ± 0.098.

WWGSGGREPGGS registered a protein stability index in series [2] of 0.739 ± 0.05.

Consider WWSASGGQDVLK, for which, in series [2], the protein stability index was found to be 0.67 ± 0.061.

As for WYHALTLASWLS, in series [2], the protein stability index was determined as 0.577 ± 0.021.

YAGARGPMNRGS: in series [2], the protein stability index stood at 0.701 ± 0.015.

YARLAWDFRRSP gave a protein stability index in series [2] of 0.737 ± 0.019.

YATAICRSGCLK: the protein stability index in series [2] stood at 0.699 ± 0.037.

YCAMVSVGVVGG: the protein stability index in series [2] was determined as 0.534 ± 0.0076.

For YCGGRWGGWEIG, the protein stability index in series [2] was 0.684 ± 0.0037.

YCHLNLHGCKGC came in with a protein stability index in series [2] of 0.636 ± 0.023.

As to YCTAGVCVKAGR, the protein stability index in series [2] was 0.765 ± 0.027.

Sequence YCVCACCASLLA came in with a protein stability index in series [2] of 0.538 ± 0.025.

YDELEKADKQEE: the protein stability index in series [2] amounted to 0.6723 ± 0.0061.

On to YEEGRGEWIKKI, for which the protein stability index in series [2] stood at 0.632 ± 0.051.

In series [2], YESISGLGHLSG yielded a protein stability index of 0.6962 ± 0.005.

For YEYPRVTFSPQT, the protein stability index in series [2] came out at 0.7878 ± 0.005.

Take YFESKWKYAGVR: the protein stability index in series [2] came to 0.699 ± 0.0074.

As for YFFDYGVSRVLS, the protein stability index in series [2] amounted to 0.584 ± 0.015.

Turning to YFSSGGITVSLC, the protein stability index in series [2] came to 0.664 ± 0.066.

Consider YFVSCACSSYFV, for which, in series [2], the protein stability index was 0.601 ± 0.02.

In turn, YGAVRFTLIPLQ yielded a protein stability index in series [2] of 0.639 ± 0.024.

For the sequence YGCSLFCPDCSI, the protein stability index in series [2] was found to be 0.794 ± 0.15.

YGFLRSWCICDT gave a protein stability index in series [2] of 0.729 ± 0.098.

YGGDMHGNNFSG came in with a protein stability index in series [2] of 0.701 ± 0.011.

For YGGRGFKGYYGG, the protein stability index in series [2] was 0.776 ± 0.02.

With YGIGNVNTGRGP, the protein stability index in series [2] is 0.703 ± 0.011.

In series [2], YGNTQFLTQTWY registered a protein stability index of 0.705 ± 0.021.

In series [2], YGSYVVNSLYLS showed a protein stability index of 0.616 ± 0.0097.

The sequence YGYMTNNCLLSI returned a protein stability index in series [2] of 0.649 ± 0.041.

For the sequence YIHGFRLFGCVD, in series [2], the protein stability index worked out at 0.668 ± 0.031.

With YKGKFTILESLK, the protein stability index in series [2] amounted to 0.665 ± 0.027.

In series [2], YKVKADRVRHRR registered a protein stability index of 0.692 ± 0.013.

Consider YLALSAPKERTH, for which, in series [2], the protein stability index turned out to be 0.703 ± 0.033.

With YLFSTGSTLHSH, in series [2], the protein stability index amounted to 0.818 ± 0.088.

YLPKLSTYRLLR: the protein stability index in series [2] came to 0.654 ± 0.032.

In series [2], YLPRPPPTTALL yielded a protein stability index of 0.74 ± 0.087.

In turn, YLQESLVEMWIV gave a protein stability index in series [2] of 0.65 ± 0.056.

Sequence YLSFYRLLDSST registered a protein stability index in series [2] of 0.664 ± 0.007.

The sequence YLSPSTPLPVVL displayed a protein stability index in series [2] of 0.64 ± 0.1.

For YLTCTLLSQPIY, the protein stability index in series [2] is 0.542 ± 0.027.

In series [2], YLVGVRDSFALR came in with a protein stability index of 0.715 ± 0.02.

YMGGGGASGAPA: the protein stability index in series [2] is 0.667 ± 0.047.

YNKKKKRYKKKF registered a protein stability index in series [2] of 0.72 ± 0.0076.

In series [2], YNMGILASQGCG displayed a protein stability index of 0.665 ± 0.046.

In series [2], YNSRKQKKREKK showed a protein stability index of 0.706 ± 0.027.

YPIFSPFSLPAL: the protein stability index in series [2] turned out to be 0.59 ± 0.0073.

The sequence YPLPPPRPPCLP returned a protein stability index in series [2] of 0.664 ± 0.063.

Sequence YPYRKRTIGVRT came in with a protein stability index in series [2] of 0.595 ± 0.015.

In the case of YQRENYERKGYR, the protein stability index in series [2] is 0.681 ± 0.067.

For YQVTEEKLIMTQ, the protein stability index in series [2] turned out to be 0.674 ± 0.036.

Consider YREVGGVAERRR, for which the protein stability index in series [2] stood at 0.695 ± 0.044.

Sequence YRGSNWEGDTPS displayed a protein stability index in series [2] of 0.667 ± 0.054.

For the sequence YRPPPLSPPSPP, in series [2], the protein stability index stood at 0.695 ± 0.013.

In series [2], YRSVLGREEQLI showed a protein stability index of 0.7 ± 0.057.

The sequence YRYGVSWFDWRI showed a protein stability index in series [2] of 0.784 ± 0.058.

As for YSEKFKDRFKED, the protein stability index in series [2] worked out at 0.67 ± 0.015.

YSGRCGVKLFNG yielded a protein stability index in series [2] of 0.705 ± 0.073.

For YSGSPPFPLSRL, the protein stability index in series [2] worked out at 0.801 ± 0.027.

Take YSIAYGVLWRYR: the protein stability index in series [2] came to 0.5687 ± 0.0051.

YSLIPLSSISQH: in series [2], the protein stability index came out at 0.685 ± 0.074.

In series [2], YSNCPQPRVISD gave a protein stability index of 0.6 ± 0.063.

Take YSPSCPRTSPLL: in series [2], the protein stability index turned out to be 0.726 ± 0.046.

Sequence YSQSRPYFRIPG gave a protein stability index in series [2] of 0.647 ± 0.029.

As to YSSGKPMEITIA, the protein stability index in series [2] worked out at 0.678 ± 0.084.

For the sequence YTHIRGVLFGVR, the protein stability index in series [2] stood at 0.704 ± 0.034.

In the case of YTSHPVLPEVNG, the protein stability index in series [2] turned out to be 0.695 ± 0.035.

Sequence YTSTPTLYTRLW registered a protein stability index in series [2] of 0.689 ± 0.014.

On to YTWHKLFFAYAI, for which, in series [2], the protein stability index stood at 0.528 ± 0.0059.

Sequence YVLSVKEGTNLP showed a protein stability index in series [2] of 0.709 ± 0.023.

Take YVSYVFDYEVRH: in series [2], the protein stability index turned out to be 0.709 ± 0.051.

As to YVTSKLMNLVLY, the protein stability index in series [2] was determined as 0.662 ± 0.066.

In series [2], YVVWGGVQGSVL gave a protein stability index of 0.747 ± 0.046.

As for YWSFRKGGLALY, in series [2], the protein stability index worked out at 0.651 ± 0.019.
